Km and kcat data for 2 proteins are collected here from patent US10829756B2, “Discovery of enzymes from the alpha-keto acid decarboxylase family” (priority 2015, dated 2020).

Assay in all cases: Steady-state kinetics of 2-ketoacid decarboxylase (ADH/NADH coupled)
Common to all, as to settings: other: pH 7.5, 21° C.

Substrate in series [1]: CCCCCCC(=O)C(=O)O
Format: biochemical. From the text:
(§1) FIG. 17: Depicts protein sequences of various 2-ketoacid decarboxylases (SEQ ID NOS:20-34). Protein Sequence 3FZN is SEQ ID NO: 20. Protein sequence 2VBI is SEQ ID NO: 21. Protein sequence 1ZPD is SEQ ID NO: 22. Protein sequence ZP_08570611 is SEQ ID NO: 23. Protein sequence YP_831380 is SEQ ID NO: 24. Protein sequence ZP_06547677 is SEQ ID NO: 25. Protein sequence 1OVM_P23234 is SEQ ID NO: 26. Protein sequence ZP_06418208 is SEQ ID NO: 27. Protein sequence ZP_07290467 is SEQ ID NO: 28. Protein sequence 2VBG is SEQ ID NO: 29. Protein sequence CAK95977 is SEQ ID NO: 30. Protein sequence ZP_07282849 is SEQ ID NO: 31. Protein sequence ZP_06846103 is SEQ ID NO: 32. Protein sequence ZP_04996569 is SEQ ID NO: 33. Protein sequence YP_381143 is SEQ ID NO: 34.
(§2) To evaluate if the integrative genomic mining approach enriches the mining for C8 activity, an additional set of previously characterized ketoacid decarboxylases diverse in sequence were experimentally characterized in an equivalent manner. […] The median C8 activity from the GEOs selected using the integrative genomic mining approach is 75-fold higher than the naively picked decarboxylases (Table 1, FIG. 4). This indicates the integrative genomic mining approach is effective in identifying functional enzymes that perform the desired reaction on C8.
(§3) For the native KIVD and KIVD_VLV mutant, 2 ml overnight cultures of XL1B cells were transformed with pQE9 containing N-terminal his-tagged KIVD enzymes and grown in Terrific Broth (BP biomedical, Cat#3046-042) with 50 μg/mL of carbenicillin. (Fisher scientific, Cat# BP2648-5) For the GEOs, 2 ml overnight cultures of BLR cells were transformed with pet29b+ plasmid containing N-terminal his-tagged GEOs, and grown in Terrific Broth with 50 μg/mL of kanamycin. (Fisher scientific, Cat# BP906-5) These cultures were diluted 1:1000 in 500 mL of Terrific Broth with 1 mM MgSO4, 1% glucose, and 50ug/mL of corresponding antibiotics, then grown at 37° C. for 24 hours. Cultures were pelleted down at 4700 rpm for 10 mins and resuspended in auto-induction media (LB broth, 1 mM MgSO4, 0.1 mM TPP, 1×NPS, and 1×5052) for induction at 18° C. for 34 hours. At the end of induction, cells were centrifuged (4700 rpm, 4° C., 20 minutes), supernatant was removed, and cells were resuspended in 40 mL lysis buffer (100 mM Hepes pH 7.5, 100 mM NaCl, 10% glycerol, 0.1 mM TPP, 1 mM MgSO4, 10 mM Imidazole, 1 mM TCEP) and 1 mM PMSF) and sonicated for 2 minutes. Lysed cells were centrifuged at 4700 rpm at 4° C. for 60 mins to remove cell debris. Supernatant was loaded on gravity flow column with 700 μl of cobalt slurry (Fisher scientific, CAT# PI-90091) washed with 10 ml of wash buffer (100 mM Hepes pH 7.5, 100 mM NaCl, 10% glycerol, 0.1 mM TPP, 1 mM MgSO4, 10 mM Imidazole, and 1 mM TCEP). Cobalt bead bed was washed with 15 ml of wash buffer 5 times and proteins were eluted with 1000 μl of elution buffer (100 mM Hepes pH 7.5, 100 mM NaCl, 10% glycerol, 0.1 mM TPP, 1 mM MgSO4, 200 mM Imidazole, and 1 mM TCEP). Protein samples were immediately buffer exchanged with spin concentrators (Satorius, CAT# VS0112) into storage buffer (100 mM Hepes pH 7.5, 100 mM NaCl, 10% glycerol, 0.1 mM TPP, 1 mM MgSO4, and 1 mM TCEP) and stored at 4° C. until kinetics characterization. Protein concentrations were determined using a Synergy H1 spectrophotometer (Biotek) by measuring absorbance at 280 nm using their calculated extinction coefficients with ExPASy ProtParam Tool.^33 All other buffers and salts were purchased from Fisher Scientific unless otherwise specified.
(§4) The kcat and KM values of selective KIVD mutants were measured for the substrates: C3, C5, isoC5, and C8. All substrates were dissolved in MilliQ H2O and pH was adjusted to 7.5 as necessary. Activity was measured at 0.005 mM to 10 mM substrates. The assay was performed in a 96-well half-area plate. […]

Substrate in series [2]: CC(C)C(=O)C(=O)O
Format: biochemical.
From the text: as §1, §2, §3, §4

Substrate in series [3]: CCCC(=O)C(=O)O
Format: biochemical.
From the text: as §1, §2, §3, §4

Substrate in series [4]: CCCCCCC(=O)C(=O)O
Format: biochemical, Lactococcus lactis. How it is done:
as §3
(§5) The kcat and KM values of selective KIVD mutants were measured for the substrates: C3, C5, isoC5, and C8. All substrates were dissolved in MilliQ H2O and pH was adjusted to 7.5 as necessary. Activity was measured at 0.005 mM to 10 mM substrates. The assay was performed in a 96-well half-area plate. Each reaction contains a final concentration of 0.5 mM NADH, 1 mM DTT, 0.1 mM TPP, 1 mM MgSO4, reaction buffer (100 mM Hepes, 100 mM NaCl, 10% glycerol, pH 7.5) and ADH (Sigma Aldrich, A7011, 10 U/ml for C3, C5 and C8 reactions, 500 U/ml for isoC5 reactions). A wide range of ketoacid decarboxylase concentrations, 4.5 nM-15 μM, were used according to the activity of each enzyme toward different substrates in order to perform steady state kinetics measurement over a period of an hour. Absorbance readings were taken every 1-minute at OD340 at 21° C. for 60 minutes using the Synergy H1. Kinetic parameters (kcat and KM) were determined by fitting initial velocity versus substrate concentration data to the Michaelis-Menten equation.

Substrate in series [5]: CC(C)C(=O)C(=O)O
The series is classed as biochemical, Lactococcus lactis. Here is the method: as §3, §5

Substrate in series [6]: CCCC(=O)C(=O)O
Format: biochemical, Lactococcus lactis. Here is the method:
as §3, §5

B1: 3FZN, ketoacid decarboxylase, SEQ ID NO: 20 (Pseudomonas putida) (protein)
chain: MASVHGTTYELLRRQGIDTVFGNPGSNELPFLKDFPEDFRYILALQEACVVGIADGYAQASRKPAFINLHSAAGTGNAMGALSNAWNSHSPLIVTAGQQTRAMIGVEALLTNVDAANLPRPLVKWSYEPASAAEVPHAMSRAIHMASMAPQGPVYLSVPYDDWDKDADPQSHHLFDRHVSSSVRLNDQDLDILVKALNSASNPAIVLGPDVDAANANADCVMLAERLKAPVWVAPSAPRCPFPTRHPCFRGLMPAGIAAISQLLEGHDVVLVIGAPVFRYHQYDPGQYLKPGTRLISVTCDPLEAARAPMGDAIVADIGAMASALANLVEESSRQLPTAAPEPAKVDQDAGRLHPETVFDTLNDMAPENAIYLNESTSTTAQMWQRLNMRNPGSYYFCAAGGLGFALPAAIGVQLAEPERQVIAVIGDGSANYSISALWTAAQYNIPTIFVIMNNGTYGALRWFAGVLEAENVPGLDVPGIDFRALAKGYGVQALKADNLEQLKGSLQEALSAKGPVLIEVSTVSPVKGSTENLYFQSGALE
With B1, the Michaelis constant (Km) (commonly the substrate concentration at which the rate is half of its maximum) in series [1] came out at 3.8 ± 0.3 mM; in series [2] it was 4.9 ± 0.3 mM; in series [3] it was 2.7 ± 0.2 mM. Besides, the results for the kcat in series [1], in series [2] and in series [3] were 1.3 ± 0.1 s⁻¹, 0.52 ± 0.02 s⁻¹ and 4.7 ± 0.1 s⁻¹, respectively.

B2: Native KIVD (ketoisovalerate decarboxylase), wild type, SEQ ID NO:1 (Lactococcus lactis subsp. lactis) (protein)
chain: MYTVGDYLLDRLHELGIEEIFGVPGDYNLQFLDQIISRKDMKWVGNANELNASYMADGYARTKKAAAFLTTFGVGELSAVNGLAGSYAENLPVVEIVGSPTSKVQNEGKFVHHTLADGDFKHFMKMHEPVTAARTLLTAENATVEIDRVLSALLKERKPVYINLPVDVAAAKAEKPSLPLKKENSTSNTSDQEILNKIQESLKNAKKPIVITGHEIISFGLEKTVSQFISKTKLPITTLNFGKSSVDEALPSFLGIYNGKLSEPNLKEFVESADFILMLGVKLTDSSTGAFTHHLNENKMISLNIDEGKIFNESIQNFDFESLISSLLDLSEIEYKGKYIDKKQEDFVPSNALLSQDRLWQAVENLTQSNETIVAEQGTSFFGASSIFLKPKSHFIGQPLWGSIGYTFPAALGSQIADKESRHLLFIGDGSLQLTVQELGLAIREKINPICFIINNDGYTVEREIHGPNQSYNDIPMWNYSKLPESFGATEERVVSKIVRTENEFVSVMKEAQADPNRMYWIELILAKEDAPKVLKKMGKLFAEQNKS
On to B2, for which the figures for the Km in series [4], in series [5] and in series [6] were 0.21 ± 0.04 mM, 4.5 ± 0.3 mM and 1.5 ± 0.1 mM, respectively. Further, the values for the kcat in series [4], in series [5] and in series [6] were 7 ± 0.3 s⁻¹, 61 ± 2.1 s⁻¹ and 14.3 ± 0.2 s⁻¹, respectively.
